Changes are numbered by the printed parent chain. Names may count otherwise.
Target: CD46, stably expressed on CHO cells (CHO-CD46) (human) (UniProt P15529)
UniProt P15529, sequence (P15529 35-392): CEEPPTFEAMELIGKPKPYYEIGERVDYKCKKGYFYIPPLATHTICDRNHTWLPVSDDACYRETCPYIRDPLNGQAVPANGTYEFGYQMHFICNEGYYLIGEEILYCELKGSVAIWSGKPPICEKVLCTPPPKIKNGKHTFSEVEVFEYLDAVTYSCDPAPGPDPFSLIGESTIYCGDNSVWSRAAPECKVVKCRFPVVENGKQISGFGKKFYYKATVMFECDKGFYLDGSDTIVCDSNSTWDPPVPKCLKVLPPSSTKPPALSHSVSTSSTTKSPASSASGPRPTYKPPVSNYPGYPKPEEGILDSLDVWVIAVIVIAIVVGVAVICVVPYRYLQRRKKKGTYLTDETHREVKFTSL

B1: human adenovirus type 3 (Ad3) fiber, on particles of the Ad3 vector (natural protein)
chain: MAKRARLSTSFNPVYPYEDESSSQHPFINPGFISPDGFTQSPNGVLSLKCVNPLTTASGSLQLKVGSGLTVDTTDGSLEENIKVNTPLTKSNHSINLPIGNGLQIEQNKLCSKLGNGLTFDSSNSIALKNNTLWTGPKPEANCIIEYGKQNPDSKLTLILVKNGGIVNGYVTLMGASDYVNTLFKNKNVSINVELYFDATGHILPDSSSLKTDLELKYKQTADFSARGFMPSTTAYPFVLPNAGTHNENYIFGQCYYKASDGALFPLEVTVMLNKRLPDSRTSYVMTFLWSLNAGLAPETTQATLITSPFTFSYIREDD
percent GFP-positive cells by flow cytometry after infection of CHO-CD46 cells with 2000 vp/c of the Ad3 vector (transduction; CHO-K1 without receptor is not transduced): 13%

B2: human adenovirus type 3 (Ad3) fiber with the JO4 mutation (V239D), on particles of the Ad3-JO4 vector (natural protein)
chain: B1 chain with V239D
percent GFP-positive cells by flow cytometry after infection of CHO-CD46 cells with 2000 vp/c of the Ad3-JO4 vector (transduction; CHO-K1 without receptor is not transduced): < 5%

— paper PMC9412290
